Measurements from patent US20230416396A1 (Regeneron, published 2023).

Tests used:
[1] = target: T1, human 4-1BB expressed with a C-terminal myc-myc-hexahistidine tag (human, UniProt Q07011 24-186); assay: SPR Biacore 8k, antibody captured by anti-human Fc, h4-1BB.mmH as analyte, 25 C
T1 construct: also called h4-1BB.mmH; REGN3584; not shown: C-terminal myc-myc-hexahistidine tag
Method: (§1) Equilibrium dissociation constants (KD values) for human 4-1BB expressed with a C-terminal myc-myc-hexahistidine tag (h4-1BB.mmH, REGN3584) or human 4-1BB expressed with a C-terminal murine Fc tag (h4-1BB.mFc, REGN3585) binding to purified anti-CD38×4-1BB 1+2 antibodies were determined using a real-time surface plasmon resonance biosensor using a Biacore 8k instrument. The CM5 Biacore sensor surface was derivatized by amine coupling with a monoclonal mouse anti-human Fc antibody (REGN2567). All Biacore binding studies were performed in a buffer composed of 0.01M HEPES pH 7.4, 0.15M NaCl, 3 mM EDTA, 0.05% v/v Surfactant P20 (HBS-EP running buffer). […] Antibody-reagent association was monitored for 5 minutes while dissociation in HBS-EP running buffer was monitored for 10 minutes. At the end of each cycle, the anti-CD38×4-1BB 1+2 antibody capture surface was regenerated using a 10 second injection of 20 mM phosphoric acid. All binding kinetics experiments were performed at 25° C.
(§2) Kinetic association (kₐ) and dissociation (kd) rate constants were determined by fitting the real-time sensorgrams to a 1:1 binding model using Cytiva Insight curve fitting software. Binding dissociation equilibrium constants (KD) and dissociative half-lives (t/2) were calculated from the kinetic rate constants as: […]

human 4-1BB on cells [2] = target: T2, human 4-1BB on cells (human, UniProt Q07011 24-255); assay: cell-based or functional assay
T2 sequence (Q07011 24-255): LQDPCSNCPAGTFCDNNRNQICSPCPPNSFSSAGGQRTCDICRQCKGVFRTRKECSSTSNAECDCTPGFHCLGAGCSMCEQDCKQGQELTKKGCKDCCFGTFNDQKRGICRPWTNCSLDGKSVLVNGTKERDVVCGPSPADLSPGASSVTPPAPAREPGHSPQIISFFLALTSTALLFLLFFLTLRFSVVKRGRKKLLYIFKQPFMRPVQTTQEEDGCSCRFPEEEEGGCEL

human 4-1BB on cells [3] = target: T2, human 4-1BB on cells; assay: cell-based or functional assay; remark: listed apart in the source
[4] = target: T3, human 4-1BB expressed with a C-terminal murine Fc tag (human, UniProt Q07011 24-186); assay: SPR Biacore 8k, antibody captured by anti-human Fc, h4-1BB.mFc as analyte, 25 C
T3 construct: also called h4-1BB.mFc; REGN3585; not shown: C-terminal murine Fc tag
T3 sequence (Q07011 24-186 limits assumed): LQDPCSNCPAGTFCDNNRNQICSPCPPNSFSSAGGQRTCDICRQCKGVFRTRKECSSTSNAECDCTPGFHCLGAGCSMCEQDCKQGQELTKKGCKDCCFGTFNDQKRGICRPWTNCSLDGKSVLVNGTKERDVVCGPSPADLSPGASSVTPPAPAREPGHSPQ
Method: as §1, §2

[5] = target: T3, human 4-1BB expressed with a C-terminal …; assay: SPR Biacore 4000, h4-1BB.mFc captured by anti-mouse Fc, antibody as analyte, 25 C
Method: Equilibrium dissociation constants (KD values) for human 4-1BB expressed with a C-terminal murine Fc tag (h4-1BB.mFc, REGN3585) binding to purified anti-CD38×4-1BB 1+2 antibodies were determined using a real-time surface plasmon resonance biosensor using a Biacore 4000 instrument. […] All Biacore binding studies were performed in a buffer composed of 0.01M HEPES pH 7.4, 0.15M NaCl, 3 mM EDTA, 0.05% v/v Surfactant P20 (HBS-EP running buffer). Different concentrations of CD38×4-1BB 1+2 constructs prepared in HBS-EP running buffer (ranging from 100 to 6.25 nM in 4-fold serial dilutions) were injected over the h4-1BB.mFc (REGN3585) captured surface at a flow rate of 30 μL/minute. Antibody-reagent association was monitored for 5 minutes while dissociation in HBS-EP running buffer was monitored for 10 minutes. At the end of each cycle, the h4-1BB.mFc capture surface was regenerated using a 40 sec injection of 10 mM glycine, pH 1.5. All binding kinetics experiments were performed at 25° C.
as §2

human 4-1BB on cells [6] = target: T2, human 4-1BB on cells; assay: cell-based or functional assay; remark: listed apart in the source
[7] = target: T4, human CD38 endogenously expressed on MOLP8 cells (human, UniProt P28907 1-300); assay: flow cytometry on MOLP8 cells (endogenous hCD38), APC anti-human secondary
T4 construct: whole, on cells; also called hCD38
Method: The ability of the multispecific antigen binding molecules to bind cells was assessed using flow cytometry. Cell lines were chosen to determine the ability of both the anti-CD38 and anti-4-1BB arms to bind their targets. […] Binding was detected by using a labeled secondary antibody and measuring fluorescence on a flow cytometer.
HEK293 cells were lifted with trypsin, washed and resuspend in stain buffer (2% FBS in PBS). MOLP8 cells were washed and resuspended in stain buffer. Cells were added to wells of a 96 well V-bottom plate (3×10⁵ cells/well). A 1:4, 9-point, dose titration of test antibodies was diluted in stain buffer and added to cells to a final concentration ranging from 610 fM to 10 nM (a “no antibody” control was included as the ninth point (153fM), labeled as “secondary only”). Cells and antibodies were incubated for 30 min on ice and then washed in stain buffer. Cells were resuspended in 2 ug/ml allophycocyanin (APC) conjugated goat-anti human secondary antibody and incubated for 30 min on ice. Cells were then washed and resuspended in viability dye (according to the manufacturer's protocol) and incubated for 30 min on ice. Cells were then washed with stain buffer and resuspended in 2% PFA for 30 min on ice. After washing, cells were filtered and analyzed by flow cytometry to determine the geometric mean fluorescence intensity (gMFI), which was subsequently plotted using GraphPad Prism software. EC₅₀ values of the antibodies were determined from a 4-parameter logistic equation over a 9-point dose response curve (including secondary only control, representing the ninth point).

T1 sequence (Q07011 24-186 limits assumed): as above

B1: REGN9686 (bispecific antibody, human IgG4 S228P, kappa)
heavy 1: EVQLVESGGGLVQPGRSLRLSCGASGFTFDDYVMHWVRQIPGKGLEWVAGISWNSGSIGYADSVKGRFTISRDNAKNSLYLQMNSLRAEDTALYFCAKDHIDPYSSSLYYYYGMDVWGQGTTVTVSSASTKGPSVFPLAPCSRSTSESTAALGCLVKDYFPEPVTVSWNSGALTSGVHTFPAVLQSSGLYSLSSVVTVPSSSLGTKTYTCNVDHKPSNTKVDKRVESKYGPPGGGGSGGGGSEVQLVESGGGLVQPGRSLRLSCGASGFTFDDYVMHWVRQIPGKGLEWVAGISWNSGSIGYADSVKGRFTISRDNAKNSLYLQMNSLRAEDTALYFCAKDHIDPYSSSLYYYYGMDVWGQGTTVTVSSASTKGPSVFPLAPCSRSTSESTAALGCLVKDYFPEPVTVSWNSGALTSGVHTFPAVLQSSGLYSLSSVVTVPSSSLGTKTYTCNVDHKPSNTKVDKRVESKYGPPCPPCPAPPVAGPSVFLFPPKPKDTLMISRTPEVTCVVVDVSQEDPEVQFNWYVDGVEVHNAKTKPREEQFNSTYRVVSVLTVLHQDWLNGKEYKCKVSNKGLPSSIEKTISKAKGQPREPQVYTLPPSQEEMTKNQVSLTCLVKGFYPSDIAVEWESNGQPENNYKTTPPVLDSDGSFFLYSRLTVDKSRWQEGNVFSCSVMHEALHNRFTQKSLSLSPGK
heavy 2: EVQLVESGGGLVQPGRSLRLSCAASGFTFDDYAMHWVRQAPGKGLEWVSGISWKSDNIGYADSVKGRFTISRDNAKNSLYLQMNSLRAEDTALYYCAKALGGWKFDYYYGMDVWGQGTTVTVSSASTKGPSVFPLAPCSRSTSESTAALGCLVKDYFPEPVTVSWNSGALTSGVHTFPAVLQSSGLYSLSSVVTVPSSSLGTKTYTCNVDHKPSNTKVDKRVESKYGPPCPPCPAPPVAGPSVFLFPPKPKDTLMISRTPEVTCVVVDVSQEDPEVQFNWYVDGVEVHNAKTKPREEQFNSTYRVVSVLTVLHQDWLNGKEYKCKVSNKGLPSSIEKTISKAKGQPREPQVYTLPPSQEEMTKNQVSLTCLVKGFYPSDIAVEWESNGQPENNYKTTPPVLDSDGSFFLYSRLTVDKSRWQEGNVFSCSVMHEALHNHYTQKSLSLSLGK
light: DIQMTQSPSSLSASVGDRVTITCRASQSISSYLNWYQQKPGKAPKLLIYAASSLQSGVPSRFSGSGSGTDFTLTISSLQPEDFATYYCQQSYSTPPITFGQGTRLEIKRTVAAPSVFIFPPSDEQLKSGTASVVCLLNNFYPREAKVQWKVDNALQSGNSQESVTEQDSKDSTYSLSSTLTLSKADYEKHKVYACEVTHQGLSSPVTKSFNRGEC
notes: 1+2 format, hIgG4P-PVA; The linker between the two 4-1BB Fabs is (G4S)2; also called CD38x4-1BB (1 + 2), (G4S)2; 26812P2 x 35333P2 (IN) + 35333P2 (OUT)
With B1 the “100 nM h4-1BB.mmH Bind (RU)” value [1] was 101 RU, the Kd [1] was 14800 pM and the koff [1] was 0.00474 s⁻¹. The kon [1] was 319000 M⁻¹ s⁻¹, the t½ [1] was 2.4 min and the “EC50 of luciferase activity, HEK293/NFkB-Luc/h4-1BB reporter + OPM2” value (human 4-1BB on cells [2]) was 18 pM. The “MAX luciferase activity, HEK293/NFkB-Luc/h4-1BB reporter + HEK293/CD20” value (human 4-1BB on cells [2]) was 1.1e+06 RLU, the “MAX luciferase activity, HEK293/NFkB-Luc/h4-1BB reporter + HEK293/CD20/CD38” value (human 4-1BB on cells [2]) was 2.4e+06 RLU and the “MAX luciferase activity, HEK293/NFkB-Luc/h4-1BB reporter + MOLP-8” value (human 4-1BB on cells [2]) was 2.2e+06 RLU. The “MAX luciferase activity, HEK293/NFkB-Luc/h4-1BB reporter + OPM2” value (human 4-1BB on cells [2]) was 2.1e+06 RLU, the “EC50 of IFNγ release, T cells + HEK293/CD20/CD38 + REGN2281” value (human 4-1BB on cells [3]) was 87.4 pM and the “EC50 of IFNγ release, T cells + MOLP-8 + REGN5458” value (human 4-1BB on cells [3]) was 102 pM. The “MAX IFNγ release, T cells + HEK293/CD20 + REGN2281” value (human 4-1BB on cells [3]) was 1450 pg/mL, the “MAX IFNγ release, T cells + HEK293/CD20/CD38 + REGN2281” value (human 4-1BB on cells [3]) was 6820 pg/mL and the “MAX IFNγ release, T cells + MOLP-8 + IsoC” value (human 4-1BB on cells [3]) was 85 pg/mL. The “MAX IFNγ release, T cells + MOLP-8 + REGN5458” value (human 4-1BB on cells [3]) was 3890 pg/mL, the “MAX IFNγ release, T cells + NALM-6” value (human 4-1BB on cells [3]) was 651 pg/mL and the “100 nM h4-1BB.mFc Bind (RU)” value [4] was 267 RU. It also gave a Kd [4] of 1200 pM, a koff [4] of 0.000205 s⁻¹ and a kon [4] of 171000 M⁻¹ s⁻¹. For the same binder, the t½ [4] was 56.3 min, the “100 nM Ab Bind (RU)” value [5] was 232 RU and the Kd [5] was 717 pM. It also gave a koff [5] of 0.000337 s⁻¹, a kon [5] of 470000 M⁻¹ s⁻¹ and a t½ [5] of 34.3 min. The “EC50 of IL-2 release, T cells + HEK293/CD20/CD38 + REGN2281” value (human 4-1BB on cells [6]) was 45.3 pM, the “EC50 of IL-2 release, T cells + MOLP-8 + IsoC” value (human 4-1BB on cells [6]) was 36.1 pM and the “EC50 of IL-2 release, T cells + MOLP-8 + REGN5458” value (human 4-1BB on cells [6]) was 83.3 pM. For the same binder, the “EC50 of IL-2 release, T cells + NALM-6” value (human 4-1BB on cells [6]) was 72.3 pM, the “MAX IL-2 release, T cells + HEK293/CD20 + REGN2281” value (human 4-1BB on cells [6]) was 57 pg/mL and the “MAX IL-2 release, T cells + HEK293/CD20/CD38 + REGN2281” value (human 4-1BB on cells [6]) was 709 pg/mL. The “MAX IL-2 release, T cells + MOLP-8 + IsoC” value (human 4-1BB on cells [6]) was 90 pg/mL, the “MAX IL-2 release, T cells + MOLP-8 + REGN5458” value (human 4-1BB on cells [6]) was 62 pg/mL and the “MAX IL-2 release, T cells + NALM-6” value (human 4-1BB on cells [6]) was 169 pg/mL.

B2: REGN7633 (bispecific antibody, human IgG4 S228P, kappa)
heavy 1: QVQLVQSGPEVKNPGAAVKVSCKASGYTFTRFGISWVRQAPGQGLEWMGWISVDNGNANYAQRFQGRVTMTTDTSTSTAYMELRSLRSDDTAVYYCAREWSIAAPGYLDYWGQGTLVTVSSASTKGPSVFPLAPCSRSTSESTAALGCLVKDYFPEPVTVSWNSGALTSGVHTFPAVLQSSGLYSLSSVVTVPSSSLGTKTYTCNVDHKPSNTKVDKRVESKYGPPGGGGSGGGGSGGGGSEVQLVESGGGLVQPGRSLRLSCAASGYTFDDYAMHWVRQAPGKGLEWVSGISWISDVIGYADSVKGRFTISRDNAKNSLYLQMNSLRAEDTALYYCAKDNGGIIVATHYYSYGMDVWGQGTTVTVSSASTKGPSVFPLAPCSRSTSESTAALGCLVKDYFPEPVTVSWNSGALTSGVHTFPAVLQSSGLYSLSSVVTVPSSSLGTKTYTCNVDHKPSNTKVDKRVESKYGPPCPPCPAPPVAGPSVFLFPPKPKDTLMISRTPEVTCVVVDVSQEDPEVQFNWYVDGVEVHNAKTKPREEQFNSTYRVVSVLTVLHQDWLNGKEYKCKVSNKGLPSSIEKTISKAKGQPREPQVYTLPPSQEEMTKNQVSLTCLVKGFYPSDIAVEWESNGQPENNYKTTPPVLDSDGSFFLYSRLTVDKSRWQEGNVFSCSVMHEALHNRFTQKSLSLSPGK
heavy 2: B1 heavy 2
light: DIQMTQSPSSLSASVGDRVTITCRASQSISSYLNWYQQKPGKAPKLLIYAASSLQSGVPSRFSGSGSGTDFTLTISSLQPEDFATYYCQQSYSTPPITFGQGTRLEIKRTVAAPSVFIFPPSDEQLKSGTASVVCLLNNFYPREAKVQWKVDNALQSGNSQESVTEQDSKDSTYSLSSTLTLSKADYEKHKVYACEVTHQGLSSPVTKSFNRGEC
notes: 1+2 format, hIgG4P-PVA; also called CD38x4-1BB (1 + 2); 26812P2 x 25889P2 (IN) + 35388P2 (OUT)
B2 was tested, and the “MAX gMFI” value [7] was 88000 gMFI.
